Source: the DeepSol protein solubility set

Test: soluble on expression in E. coli; label from the status in PepcDB or PDB records

Sequence | soluble on expression in E. coli
KMNRKPTTKIISICLKKATGHVAEALGVEKATEVIVIERLRSLDNMPAIFEIDYFRKEDQFMLDLELTDTSLLDILRQYRGVIASYFDNIIEIALADEKLAEALAISEEEALVKINQTVVDNDNQILYFNEQYILSESYKVAIRSYNK | soluble
QRKKAEEALRLSNIYNRSLIESSLDPLVTIGRDGKITDVNCATEQVTGYPRNDLIKTDFSDYFTEPENARAGYKQVFTDGEVRDYPLEIQHKDGHITPVLYNASVYRDENGEVIGVFAAARDIT | not soluble
MGSDKIHHHHHHMESIVSWPKPRGLARHSGRKAMSSLSSLARIALSLSLPSGLLDRGPSLRGTKFLAKAALKARFGGASQPFQMVNVGACDGALFDDVTPWLHRIAGARAMLVEPIPYNQKRLRANYPDKERFIIEPVAVTKTKGTITVHTFDAAALEAGTLPIEFIGCSSVTDTNLMSGKNAWGEADANFNKFAPHLRDIEVPSETLQTLLDRNGISHIDAFLVDCEGADWMVFEQLDLKRYRPGLIKVEVGALPATEIGQVVVKLKTAGYQVGFQAEDVWAFA | not soluble
MSCHTSCIDHTSALIHCADEVFEKPLPHLFEAAVFLMGFTLWGKLEFNQRDGFLDCPHGDRVCGSGMMSKVDILQLTGHFFTNFNGRDYIENIQNLFDNQLASYHIRNQFLIGIQRLGHRKLLIAF | not soluble
MFPSSEVEAKRTTLNLELESNTDRLLQEKDDLLPQSVTNSSDEGTPFAQVEGASDDNTAEQDSDKPGASVADADTKPVDPEWKTITVASGDTLSTVFTKAGLSTSAMHDMLTSSKDAKRFTHLKVGQEVKLKLDPKGELQALRVKQSELETIGLDKTDKGYSFKREKAQIDLHTAYAHGRITSSLFVAGRNAGLPYNLVTSLSNIFGYDIDFALDLREGDEFDVIYEQHKVNGKQVATGNILAARFVNRGKTYTAVRYTNKQGNTSYYRADGSSMRKAFIRTPVDFARISSRFSLGRRHPILNKIRAHKGVDYAAPIGTPIKATGDGKILEAGRKGGYGNAVVIQHGQRYRTIYGHMSRFAKGIRAGTSVKQGQIIGYVGMTGLATGPHLHYEFQINGRHVDPLSAKLPMADPLGGADRKRFMAQTQPMIARMDQEKKTLLALNKQR | not soluble
GPGSMELALEAMDAAEPPVSAAEKARRLALLRASSAEEARSLVALHDAAALAELRAAIMDSFPDERHDPEMSVHLDQIIWGRCPIRIDVAGAWTDTPPYAILSGGSVINVAVELNGQPPVQVYVRVREDPIIMMHSIDSGEQLSVSSFDEIRTYATMQNPFSIPKAALALCGFLPEFCATEYATLREQLAARFGGHGLEISLFVAIPTGSGLGTSSIVAGTVLRSLAEFCKLPWDNHDVCRRVLLIEQMLTAGGGWQDQYGGLFEGLKLVQCVPGLPCLPTVRWMPDSVYTDPRFAACHLLYYTGITRMAKGILGEIVRDVLLNNGATLQLLREMGGPTTAAMYDAITTGNYKGYARLVHRTWEQKKRLDDGVCNPTVQSIVDIVEPYVWGLTLPGAGGGGYMYMCAKDEACARRIRELLTANPPNGNARFVEMSVSASGLQISRS | not soluble
MGSDKIHHHHHHMTKIGEKRYIFYLTNTKIDQSIMLSELKTFIAVSQYGTFSGAGARIGLTQSAVSAQMQRLEEELGFALFDRTGRSATLNDAGRETLALAEEMMTLYARLSERGAVAAESGMLRVGAIASAQVSFLADALARFRDDRPGWRIRVVPGVSLGLLGQVDSGELDLAVIIKPPFALPSELEWRTLVTEPFVLLVPKALVRGKGNARSWRELLRSEPFIRYDRTSFGGRLVDRFLRRSRLNVHDVIELDELQGIVQLVARGIGVALIPDSAGLGKWPAGVAALELGEATFQREIGLVQRPRHSRQAVAGVLADCIGTAAGV | not soluble
MDAARFPADARVRVLARRFPPYHRDSPCLAILDRFLHDPTLSAAAVVDDAMRPVGLIDRYSLVEQFLHPYSRDLYHKHSIAAFMDPEPVIVEADSSIDDLSRIIIDAGMRHMVSGFIVTEDGLYLGIGSGHDLFEEVANRKQNHLYHLAHYDPLTSLPNRLLLNDRLKRACLRGQRGGYRIALLFIDLDRFKLVNDTLGHAAGDQLLQGVAGRFAACVRKVDTVARLGGDEFTVLLEPVQGPDEALAVAAKLAQSLERPFLIQNHEITTSASIGVVLFPEHDATVEGLMRKADAAMYCAKREGRNRFALFTEEMNSTVVERVTLESYLNAALEKGEFCCHFQPQMATADDRIVGVEALLRWTNPVLGRVPPLKFIPVAEDTGLILPLGLWALETACAQQVRWLSQGLPPLRMAVNISPLQFRNREFCDQVRAIVQRTGIRAEHLELELTESAVMADAESSVGILRELRDSGIRLAIDDFGTGYSSLSYLRKFPLDRLKIDRSFVSGIDRIPANELIVKAIVALGGSLGLDVIAEGVETPEELECIERCGCSEYQGFRLSEPLTAEDFAHWFEDSGYVLEHHHHHH | not soluble
MKLLKDLLVDRKEFEDWKNNLTWARDGTLYLTTFPDISIGQPKYAKDINCNSKNLFHVKEFPLEFENKLDFELAQQNGLLNSQPVCYPRVCKPSPIDDWMAVLSNNGNVSVFKDNKMLTNLDSKGNLSSRTYHCFEWNPIESSIVVGNEDGELQFFSIRKNSENTPEFYFESSIRLSDAGSKDWVTHIVWYEDVLVAALSNNSVFSMTVSASSHQPVSRMIQNASRRKITDLKIVDYKVVLTCPGYVHKIDLKNYSISSLKTGSLENFHIIPLNHEKESTILLMSNKTSYKVLLEDELHVTADNIIAPYLEKKFKKWSTIWNEFNNYETTLVIHGISLSPDGYSIAIVYDMERVAFKYKIASEQSFNIMFAPLYHTWTISERAVGLAWYQTYQIYNQSLPKLPENFSMNKKLLNGNYPISLDFQSYLNALMKSEEMRIIMFLNMTIDKPSILSFLEALYEYAINKKSELTNSFDLACVLSIAAILKREAPIYNGTLLMKNSFLEETFNLESFTADPETVTSTTNNTWKRCGVTLLPILTTHVKICPVSKQRVIDIKRDDLNDYGWFTRGLLERFNEISVYCGTTLEVM | soluble
MGSDKIHHHHHHMKQILFMDTTLRDGEQSPGVNLNEQEKLQIARQLERLGIHVMEAGFAAASEGDFQSVKRIANTIQNATVMSLARAKESDIRRAYEAVKGAVSPRLHVFLATSDIHMKYKLCMSKEDVLDSIHRSVTLGKSLFPTVQFSAEDATRTARDFLAEAVEVAIRAGANVINIPDTVGYTNPEEYYSLFKYLQESVPSYEKAIFSCHCHDDLGMAVANSLAAVEGGALQVEGTINGIGERAGNAALEEVAVALHIRKDFYQAEPSMTLKEIKATSTLVSRLTGMVVPKNKAIVGANAFAHESGIHQDGVLKEVTTYEIIEPELVGESQNLFVLGKHSGRHAFTEKMKELGYEFTTEERDAVFEAFKKLADRKKEITEEDLRALMLGEAAFAAQQYNITQLQVHFVSNSTQCATVVLKDEEGNVFEDAATGSGSIEAIYNAIQRILGLECELADYRIQSITQGQDALAHVHVELKEGTHQVSGFGVAQDVLEASARAYVHAAGKLKSFIQLVK | not soluble
MSSGKDFFVHSHALCESENIGKDSRVWAFAHILPGARLGSECNVCDNVFIENDVIIGDRVTLKCGVQVWDGITIEDDVFIGPNATFTNDLFPRSKVYPQTFARTIIRKGASLGANCTILPGITIGINAMVGAGAVVTRSVPPNAIVVGNPAKIIGYVDAKPVNANSETRAEQKAPGVTATSVKNVTLHTMNEVADIRGSLSAGEFERSVPFKTERYFLVYDVPTAETRGEHAHRICHQFLVAVKGSVHVVADDGVNREEFILDKPNQGIHLPPMTWGIQYRYSQDAVLLVFASHYYDAGDYIRNYEEFKSLIANAELEHHHHHH | soluble
MPLTPADVHNVAFSKPPIGKRGYNEDEVDAFLDLVEQELSRLIEENADLRQRVGELDKELADAKKAPRSGSAAPTPAPKAEPARVVEQPKAPAPAPAPAAAAAAAPAQGADAHMQAAKVLGLAQEMADRLTSDAKTESEQLLGNARTNSEQLVSDARTRSETMIADARQKSEALITDAQTRSETQLRQAKEKADALQADAEKKHTEIMATINQQRSVLEGRIEQLKTFEREYRVRLKSYLESQLEELEQRGSAVPVDGGQDSFAQGGSQSNYSQSYAKGNS | not soluble
MSLGFVPVRGLHHFAYRCRDAEETRQFYEGILGLPLVHVVRAEEVPSTGEYCPYMHLFFEMKDGSCVAFFDLDDDTVPLPSSNTPVWAQHLALRVDSVAAVEEAKRKLEQAGVKVLGPVDHDGFVCSIYFFDPNGVRLELTTDTAEGHHHHHH | soluble
